Source: patent US20250163166A1

What was measured:
[1] = molecular target: human FCγRIIIa receptor (human) (UniProt P08637); experiment: BLI; Ratio of the hIgG (hIgG1) control against itself
[2] = molecular target: human FCγRIIIa receptor (human) (UniProt P08637); experiment: BLI (Octet 96), antibody loaded on sensor, FCγRIIIa 200 nM and 2-fold dilutions in solution

Chain of human FCγRIIIa receptor (human) (P08637 17-208 limits assumed): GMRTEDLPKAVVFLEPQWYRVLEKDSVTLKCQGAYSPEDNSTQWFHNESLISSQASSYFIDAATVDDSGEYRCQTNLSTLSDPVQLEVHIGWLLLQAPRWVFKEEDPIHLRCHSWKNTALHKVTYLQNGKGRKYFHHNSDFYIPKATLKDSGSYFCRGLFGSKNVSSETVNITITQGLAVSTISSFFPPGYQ

Substance control sample hIgG1 (antibody) has a Ratio [1] of 1 and a Kd [2] of 88.6 nM.
